The record followed here is PMC10801580 (2024).

For test [1], the target named is T1, WT RBD-6xHis (receptor-binding domain of the SARS-CoV-2 spike protein) (SARS-CoV-2, UniProt P0DTC2). The test can be described thus: ELISA. A general note: An ELISA detects its analyte on a solid surface through an enzyme-linked reagent.
In test [2] the target is T1, WT RBD-6xHis (receptor-binding domain …). The test can be described thus: BLI. On the technique in general: Biolayer interferometry detects binding as a change in optical thickness at a sensor tip.

B1: murine 9-8F2-B11 (antibody, V domains shown)
VH: EVQLQQSGAELVKPGASVKLSCTASGFNIKETYVHWVKQRPEQGLEWIGRIDHAIGDSEYDPKFQGKATVTADTSSNTAYLQLSRLTSEDTAVYYCARTWGPFFDFWGQGTTVTVSS
VL: DVVMTQTPLSLPVSLGDQASISCRSSQSLVHSHGNTFLHWYLQKPGQSPKVLIYKVSSRFSGVPDRFSGSGAGTDFTLKISRVEAEDLGVYFCSQSTHVPYTFGGGTKLEIK
The EC50 is the concentration giving half of the maximal effect. One may read the Kd as a measure of binding affinity in units of concentration. A higher Kd goes with weaker binding. Regarding B1, in test [1], the half-maximal effective concentration (EC50) is 0.0137 ng/mL. The same molecule showed an equilibrium dissociation constant (Kd) in test [2] of 0.913 nM.

B2: humanized 9-8F2-B11, VH3VL3 combination (antibody, V domains shown)
VH: QVQLVQSGAEVKKPGASVKVSCKASGFNIKETYVHWVRQAPGQGLEWMGRIDPAIGDSEYAQKFQGRVTMTRDTSISTAYMELSRLRSDDTAVYYCARTWGPFFDFWGQGTLVTVSS
VL: DIVMTQTPLSLSVTPGQPASISCKSSQSLLHSHGNTFLHWYLQKPGQSPQVLIYKVSSRFSGVPDRFSGSGSGTDFTLKISRVEAEDVGVYYCSQSTHVPYTFGQGTKLEIK
For B2, binding in test [2] was characterised by a dissociation constant (Kd) of 2.26 nM.
